Experimental data from patent US20230391865A1 (University of California, published 2023).

B1: Anti-TSPAN3 M5 clone monoclonal antibody (antibody, IgG2b, V domains shown)
VH: EVQLQQSGPELVKPGASVKMSCKASGYTFTDFYMHWVKQSHGRSLEWIGYIYPHNGFTKYNQSFMGKATLTVNKSSNTAYMELRSLTSEDSAVYYCARRYGDYWGQGISVTVSS
VL: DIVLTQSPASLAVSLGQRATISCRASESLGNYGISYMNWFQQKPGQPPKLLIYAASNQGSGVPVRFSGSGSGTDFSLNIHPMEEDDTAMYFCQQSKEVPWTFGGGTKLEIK
notes: Mouse hybridoma clone; isotype IgG2b, kappa; also called Clone 5 (TSPAN3-C - M5)
B2: Anti-TSPAN3 M6 clone monoclonal antibody (antibody, IgG2b, V domains shown)
VH: EVQLQQSGPELVKPGASVKMSCKASGYTFTDFYMHWVKQSHGRSLEWIGYIYPHNGFTKYNQSFMGKATLTVNKSSNTAYMELRSLTSEDSAVYYCARRYGDYWGQGISVTVSS
VL: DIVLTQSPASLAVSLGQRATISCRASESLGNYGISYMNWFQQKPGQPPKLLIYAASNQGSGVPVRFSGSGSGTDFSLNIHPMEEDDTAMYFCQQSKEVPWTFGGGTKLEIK
notes: Mouse hybridoma clone; isotype IgG2b, kappa; also called Clone 6 (TSPAN3-C - M6)
B3: Anti-TSPAN3 M3 clone monoclonal antibody (antibody, V domains shown)
VH: QIQLVQSGPELKKPGETVKISCKASGYTFTTYGMSWVKQAPGKGLKWMGWINTYSGVPTYADDFKGRFAFSLETSASTAYLQINNLKNEDTATYFCARSHYSNFYAMDYWGQEPQSP
VL: DIVMTQSHKFMSTSVGDRVSITCKASQDVGTAVAWYQQKPGQSPKLLIYWASTRHTGVPDRFTGSGSGTDFTLTISNVQSEDLADYFCQQYSSYPLTFGAGTKLELK
notes: Mouse hybridoma clone; isotype IgM, kappa; also called Clone 3 (TSPAN3-C - M3)
B4: Anti-TSPAN3 M1 clone monoclonal antibody (antibody, IgG1, V domains shown)
VH: QVQLQQPGAELVKPGASVKLSCKASGYTFTSYWMHWVKQRPGQGLEWIGMIHPNSGSPNYNERFKSKATLTVDKSSSTAYMQLSSLTSEDSAVYFCARWGDGYHRYFDVWGTGTTVTVSS
VL: DIQMTQSPASLSASVGETVTITCRASGNIHNYLAWYQQKQGKSPQLLVYNAKTLADGVPSRFSGSGSGTQYSLKINSLQPEDFGSYYCQHFWSTPPYTFGGGTKLEIK
notes: Mouse hybridoma clone (CD-1 library); isotype IgG1, kappa; also called Clone 1 (TSPAN3-C - M1)

What follows are binders tested against T1, human Tetraspanin-3 (TSPAN3) (human, UniProt O60637 1-253) (assay: flow cytometry (FACS) on TSPAN3-expressing cells).
T1 construct: whole, on cells; also called human TSPAN3; cell surface expressed TSPAN3
T1 sequence (O60637 whole entry): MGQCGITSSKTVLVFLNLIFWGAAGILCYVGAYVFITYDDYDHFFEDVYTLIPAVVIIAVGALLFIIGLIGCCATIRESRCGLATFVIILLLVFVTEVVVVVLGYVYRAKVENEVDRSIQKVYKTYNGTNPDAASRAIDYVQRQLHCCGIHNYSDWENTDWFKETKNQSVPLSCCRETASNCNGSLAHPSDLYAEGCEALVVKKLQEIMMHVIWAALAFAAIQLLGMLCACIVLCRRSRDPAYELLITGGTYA
Excerpt: Using the hybridoma technology, i.e., fusing the antibody-producing B-cells harvested from the immunized mice with myeloma cells, two hybridoma fusion libraries were generated three days later (one from the reactive NZBW mouse and one from the two pooled reactive CD-1 mice), and then retested for reactivity to surface-expressed human TSPAN3.

Binder	% Gated [%]	Median Fluorescence Intensity (MFI)
B1	73	529
B2	69.5	308
B3	60.7	284
B4	59	290
